From patent publication US20050118646A1 come the findings set out here.

A value given as a limit tells only on which side of the number the result lay.

Assay [1] deals with Neutravidin (UltraLink neutravidin beads, Pierce; neutravidin protein) (UniProt P02701). As to the kind of experiment: ELIFA; binding of the biotinylated protein to Ultralink Neutravidin beads (through biotin).
For assay [2] the target is unchanged. As to the kind of experiment: Western blot (streptavidin-HRP) of sample and supernatant after binding to Neutravidin beads. On the technique in general: In western blotting, separated proteins are transferred to a membrane and probed.

Sequence of UniProt P02701 (P02701 25-152): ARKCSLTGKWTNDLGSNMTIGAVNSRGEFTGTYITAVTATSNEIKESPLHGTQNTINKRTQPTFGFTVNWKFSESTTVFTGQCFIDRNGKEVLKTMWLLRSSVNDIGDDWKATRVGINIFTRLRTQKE

Take “E24-tagged CDKN1b (AviTag-TEV cleavage site-His6-PrC-CDKN1b), biotinylated (from UniProt P46527 1-198)”: the Binding [%] in assay [1] was 100%. In addition, in assay [2], the percent bound to the beads was over 80%.
For “E24-tagged Grb2 (AviTag-TEV cleavage site-His6-PrC-Grb2), biotinylated (from UniProt P62993 1-217)” the same measures were 100% and over 80%.
Taken in the same sequence, the figures for “E24-tagged NAPA (AviTag-TEV cleavage site-His6-PrC-NAPA), biotinylated (from UniProt P54920 1-295)” were 100% and over 80%.
For the substance “E25-tagged CDKN1b (AviTag-(G4S)2-TEV cleavage site-His6-PrC-CDKN1b), biotinylated (from UniProt P46527 1-198)”, the Binding [%] in assay [1] is 100%. For the same substance, the percent bound to the beads in assay [2] was over 80%.
For “E25-tagged Grb2 (AviTag-(G4S)2-TEV cleavage site-His6-PrC-Grb2), biotinylated (from UniProt P62993 1-217)” the same measures were 100% and over 80%.
For “E25-tagged NAPA (AviTag-(G4S)2-TEV cleavage site-His6-PrC-NAPA), biotinylated (from UniProt P54920 1-295)” the same measures were 100% and over 80%.
